Laboratory results taken from the supplement of paper PMC6757056.
± gives the standard deviation of the averaged measurements.

B1: library; a variant is named by its letters at N, in order (parent)
chain: GCUGUCACCGAGAAACUGUGAAGUAUAUCUUAAACCUGGGCACUUAAAAGAUAUAUGGAGUUAGUAGUGCAACCUGCUCGGUCUGAUGAGUCCNNNNNNGGACGAAACAGC

Assays:
cyclic di-GMP [1] = variants of: B1; assay: FACS-Seq fitted mean relative fluorescence mCherry/BFP without ligand (log10 relative fluorescence); HEK293T; ligand: cyclic di-GMP (c-di-GMP-II aptamer); higher = higher reporter protein expression; conditions: ligand present: no
Procedure: (§1)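 Hammerhead (sTRSV) ribozyme switch libraries with a ligand aptamer grafted on stem I and a randomized N4-6 loop II, cloned into the 3' UTR of mCherry and transiently transfected into HEK293T cells; RNA-Seq 72 h post transfection with ligand added 1 h before transfection; RNA read count / plasmid DNA read count normalized to the non-cleaving sTRSVctl (x100), log10; sequences with >100 DNA reads. FACS-Seq: lentiviral library sorted into 6 bins after 48 h ligand, log-normal fit mean of mCherry/BFP scaled to controls. Printed sequences are partial switch sequences.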

cyclic di-GMP [2] = variants of: B1; assay: normalized RNA/DNA level without ligand (relative to sTRSVctl = 100) (log10 (% of sTRSVctl)); HEK293T; ligand: cyclic di-GMP (c-di-GMP-II aptamer); higher = less ribozyme self-cleavage, higher mRNA level; conditions: reporter: mCherry (pCS4076), ligand present: no
Procedure: as §1

cyclic di-GMP [3] = variants of: B1; assay: FACS-Seq fitted mean relative fluorescence mCherry/BFP with ligand (log10 relative fluorescence); HEK293T; ligand: cyclic di-GMP (c-di-GMP-II aptamer); ligand concentration (+) FACS-Seq: 1 mM; higher = higher reporter protein expression; conditions: ligand present: yes
Procedure: as §1

cyclic di-GMP [4] = variants of: B1; assay: normalized RNA/DNA level with ligand (relative to sTRSVctl = 100) (log10 (% of sTRSVctl)); HEK293T; ligand: cyclic di-GMP (c-di-GMP-II aptamer); ligand concentration (+) RNA-Seq: 1 mM; higher = less ribozyme self-cleavage, higher mRNA level; conditions: reporter: mCherry (pCS4076), ligand present: yes
Procedure: as §1

Variant	FACS-Seq fitted mean (log10) (cyclic di-GMP [1])	normalized RNA/DNA level without ligand (log10) (cyclic di-GMP [2])	FACS-Seq fitted mean (log10) (cyclic di-GMP [3])	normalized RNA/DNA level with ligand (log10) (cyclic di-GMP [4])
GAAAAG	-0.45 ± 0.058	1.575 ± 0.0029	-0.228 ± 0.032	1.74 ± 0.14
GAAAAU	-0.15 ± 0.048	1.55 ± 0.048	0.162 ± 0.015	1.74 ± 0.1
CAAACA	-0.651 ± 0.025	1.34 ± 0.069	-0.439 ± 0.079	1.62 ± 0.11
GAACAG	-0.182 ± 0.12	1.753 ± 0.015	0.0981 ± 0.039	1.82 ± 0.094
UAAGGA	-0.894 ± 0.046	1.54 ± 0.1	-0.73 ± 0.051	1.7 ± 0.066
CAAGUA	-0.495 ± 0.0052	1.46 ± 0.13	-0.203 ± 0.02	1.63 ± 0.07
CAAGUU	-0.164 ± 0.058	1.71 ± 0.027	0.078 ± 0.065	1.86 ± 0.12
AAACUU	-0.199 ± 0.0094	1.646 ± 0.0047	0.118 ± 0.0021	1.82 ± 0.091
AAACUG	-0.426 ± 0.0086	1.53 ± 0.039	-0.194 ± 0.0073	1.75 ± 0.092
AAACUA	-0.338 ± 0.065	1.49 ± 0.031	-0.0568 ± 0.0064	1.65 ± 0.11
AAACUC	-0.854 ± 0.053	1.706 ± 0.0065	-0.744 ± 0.039	1.83 ± 0.071
AAACAC	-0.457 ± 0.011	1.6 ± 0.035	-0.124 ± 0.07	1.75 ± 0.082
AAACAG	-0.103 ± 0.1	1.55 ± 0.053	0.169 ± 0.015	1.73 ± 0.095
AAACAU	-0.286 ± 0.077	1.6 ± 0.019	-0.0737 ± 0.18	1.77 ± 0.11
AAACAA	-0.921 ± 0.12	1.44 ± 0.051	-0.77 ± 0.014	1.62 ± 0.1
UAAACA	0.0579 ± 0.081	1.742 ± 0.0053	0.349 ± 0.078	1.85 ± 0.079

Variant	FACS-Seq fitted mean (log10) (cyclic di-GMP [1])	normalized RNA/DNA level without ligand (log10) (cyclic di-GMP [2])	FACS-Seq fitted mean (log10) (cyclic di-GMP [3])	normalized RNA/DNA level with ligand (log10) (cyclic di-GMP [4])
CAAAGU	0.000886 ± 0.21	1.7 ± 0.032	0.204 ± 0.087	1.79 ± 0.12
CAAAGA	-0.231 ± 0.15	1.47 ± 0.074	0.00425 ± 0.022	1.68 ± 0.1
AAACGG	-0.275 ± 0.019	1.5 ± 0.12	0.0867 ± 0.11	1.7 ± 0.1
AAAGAU	0.0924 ± 0.13	1.52 ± 0.037	0.367 ± 0.016	1.71 ± 0.17
AAAGAC	-0.0292 ± 0.22	1.56 ± 0.036	0.33 ± 0.099	1.75 ± 0.09
AAAAGG	-0.489 ± 0.057	1.49 ± 0.12	-0.254 ± 0.005	1.66 ± 0.093
AAAAGC	0.0679 ± 0.01	1.58 ± 0.045	0.227 ± 0.045	1.73 ± 0.089
AAAAGA	-0.494 ± 0.013	1.36 ± 0.073	-0.116 ± 0.009	1.56 ± 0.14
AAAACG	-0.442 ± 0.098	1.5 ± 0.072	-0.105 ± 0.12	1.71 ± 0.079
UAACUU	-0.637 ± 0.031	1.65 ± 0.005	-0.458 ± 0.042	1.79 ± 0.12
UAACUC	-0.459 ± 0.11	1.78 ± 0.016	-0.294 ± 0.11	1.88 ± 0.085
GAAGGA	-0.325 ± 0.067	1.44 ± 0.093	0.0781 ± 0.006	1.59 ± 0.067
GAACGU	-0.419 ± 0.027	1.54 ± 0.095	-0.133 ± 0.0044	1.69 ± 0.092
GAACGA	-0.276 ± 0.045	1.46 ± 0.1	-0.0281 ± 0.066	1.64 ± 0.072
GAAAGA	-0.392 ± 0.037	1.41 ± 0.11	-0.0161 ± 0.058	1.57 ± 0.11
GAAAGU	-0.387 ± 0.03	1.55 ± 0.044	-0.0693 ± 0.089	1.71 ± 0.095
